Assay results: US20140212423A1 (AbbVie / Abbott, published 2014)
Each block holds one binder with its values, some of them ahead of it.

Assays:
[1] = molecular target: Repulsive guidance molecule A; assay: cell-based or functional assay
[2] = molecular target: T1, mouse Transferrin Receptor overexpressed on Hek 293 cells (mouse, UniProt Q62351 1-763); assay: 293/mTFR cell-based assay
T1 construct: whole, on cells; also called Hek293/mTfR; 293/mTFR
Procedure: Meso-scale Discovery (MSD) Electrochemiluminescesnce (ECL) assays to screen for antibodies or DVDs that bind a desired target antigen expressed on the cell surface were performed as follows: Hek 293 cells overexpressing mouse Transferin Receptor were added onto MSD 96-well plates (MSD Cat# L11 XB-3, lot#2290-EA) which were blocked using blocking buffer (30% FBS Serum (Hyclone) in PBS) at 37° C. for 1 hr. After incubating at RT for 30 min with mild agitation, plates were washed with DPBS 3 times and Abs/DVDs (10,000 ng/ml) were added. After incubating for 1 hr at RT, plates were washed 3 times with DPBS and 25 ul of Goat anti human Sulfo TAG (MSD Cat# R32AC-, Lot# W001162) at 1 μg/ml is added. Following a 1 h incubation at RT for 1 hr, plates are washed and MSD read buffer is added before reading on MSD SECTOR Imager 6000. EC50 values are obtained using Xlfit4 software package

T1 sequence (Q62351 whole entry): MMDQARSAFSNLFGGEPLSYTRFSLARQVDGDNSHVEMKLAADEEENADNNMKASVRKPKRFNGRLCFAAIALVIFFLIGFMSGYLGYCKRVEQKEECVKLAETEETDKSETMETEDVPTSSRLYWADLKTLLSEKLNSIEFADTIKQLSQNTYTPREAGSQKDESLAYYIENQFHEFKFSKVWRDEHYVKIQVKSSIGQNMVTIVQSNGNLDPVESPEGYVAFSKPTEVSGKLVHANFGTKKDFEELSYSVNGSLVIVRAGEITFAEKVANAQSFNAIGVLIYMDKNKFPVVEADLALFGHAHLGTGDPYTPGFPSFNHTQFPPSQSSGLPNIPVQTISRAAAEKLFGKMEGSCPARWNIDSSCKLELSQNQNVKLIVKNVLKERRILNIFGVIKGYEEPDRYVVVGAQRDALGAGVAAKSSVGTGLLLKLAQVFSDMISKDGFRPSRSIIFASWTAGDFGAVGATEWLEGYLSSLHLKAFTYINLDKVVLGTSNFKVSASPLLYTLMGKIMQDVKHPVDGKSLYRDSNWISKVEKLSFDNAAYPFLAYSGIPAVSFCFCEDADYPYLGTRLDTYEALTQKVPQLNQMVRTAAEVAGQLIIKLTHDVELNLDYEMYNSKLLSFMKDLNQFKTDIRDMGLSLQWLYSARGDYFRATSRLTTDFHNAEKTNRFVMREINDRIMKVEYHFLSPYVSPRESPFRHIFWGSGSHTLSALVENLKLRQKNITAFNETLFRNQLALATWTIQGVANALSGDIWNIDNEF

B3: RGMA(AE12-1)-GS-TfR(AB402) (bispecific antibody)
VH: EVQLVQSGAEVKKPGASVKVSCKASGYTFTSHGISWVRQAPGQGLDWMGWISPYSGNTNYAQKLQGRVTMTTDTSTSTAYMELSSLRSEDTAVYYCARVGSGPYYYMDVWGQGTLVTVSSGGGGSGGGGSEVQLVESGGGLVQPGGSLRLSCAASGFTFSNYGMHWIRQAPGKGLEWIAMIYYDSSKMNYADTVKGRFTISRDNAKNSLYLQMNSLRAEDTAVYYCAVPTSHYVVDVWGQGTTVTVSS
VL: QSALTQPRSVSGSPGQSVTISCTGTSSSVGDSIYVSWYQQHPGKAPKLMLYDVTKRPSGVPDRFSGSKSGNTASLTISGLQAEDEADYYCCSYAGTDTLFGGGTKVTVLGGGSGGGGSGAIQMTQSPSSLSASVGDRVTITCQASQDIGNWLAWYQQKPGKSPKLLIYGATSLADGVPSRFSGSRSGTDFTLTISSLQPEDFATYYCLQAYNTPWTFGGGTKVEIKR
notes: DVD-Ig composed from its name; constant regions not assigned
BMP Assay (EC50, nM) [1]: 0.014 nM | EC50 [2]: 5.36 nM

B5: TfR(AB405)-GS-RGMA(AE12-1) (bispecific antibody)
VH: QVQLVQSGAEVKKPGASVKVSCKASGFTFSNYGMHWIRQAPGQGLEWIAMIYYDSSKMNYADTVKGRFTITRDNSTNTLYMELSSLRSEDTAVYYCAVPTSHYVVDVWGQGTTVTVSSGGGGSGGGGSEVQLVQSGAEVKKPGASVKVSCKASGYTFTSHGISWVRQAPGQGLDWMGWISPYSGNTNYAQKLQGRVTMTTDTSTSTAYMELSSLRSEDTAVYYCARVGSGPYYYMDVWGQGTLVTVSS
VL: EIVMTQSPATLSVSPGERATLSCQASQDIGNWLAWYQQKPGQSPRLLIYGATSLADGVPARFSGSRSGTEFTLTISSLQSEDFAVYYCLQAYNTPWTFGGGTKVEIKRGGSGGGGSGQSALTQPRSVSGSPGQSVTISCTGTSSSVGDSIYVSWYQQHPGKAPKLMLYDVTKRPSGVPDRFSGSKSGNTASLTISGLQAEDEADYYCCSYAGTDTLFGGGTKVTVLG
notes: as for B3
BMP Assay (EC50, nM) [1]: 3.12 nM | EC50 [2]: 28.1 nM

B6: RGMA(AE12-1)-SS-TfR(AB402) (bispecific antibody)
VH: EVQLVQSGAEVKKPGASVKVSCKASGYTFTSHGISWVRQAPGQGLDWMGWISPYSGNTNYAQKLQGRVTMTTDTSTSTAYMELSSLRSEDTAVYYCARVGSGPYYYMDVWGQGTLVTVSSASTKGPEVQLVESGGGLVQPGGSLRLSCAASGFTFSNYGMHWIRQAPGKGLEWIAMIYYDSSKMNYADTVKGRFTISRDNAKNSLYLQMNSLRAEDTAVYYCAVPTSHYVVDVWGQGTTVTVSS
VL: QSALTQPRSVSGSPGQSVTISCTGTSSSVGDSIYVSWYQQHPGKAPKLMLYDVTKRPSGVPDRFSGSKSGNTASLTISGLQAEDEADYYCCSYAGTDTLFGGGTKVTVLGQPKAAPAIQMTQSPSSLSASVGDRVTITCQASQDIGNWLAWYQQKPGKSPKLLIYGATSLADGVPSRFSGSRSGTDFTLTISSLQPEDFATYYCLQAYNTPWTFGGGTKVEIKR
notes: DVD-Ig composed from its name; constant regions not assigned; not shown: short light-chain linker (code S) after a lambda VL
BMP Assay (EC50, nM) [1]: 0.436 nM | EC50 [2]: 30.9 nM

B7: RGMA(AE12-1)-SS-TfR(AB403) (bispecific antibody)
VH: B6 VH
VL: QSALTQPRSVSGSPGQSVTISCTGTSSSVGDSIYVSWYQQHPGKAPKLMLYDVTKRPSGVPDRFSGSKSGNTASLTISGLQAEDEADYYCCSYAGTDTLFGGGTKVTVLGQPKAAPEIVMTQSPATLSVSPGERATLSCQASQDIGNWLAWYQQKPGQSPRLLIYGATSLADGVPARFSGSRSGTEFTLTISSLQSEDFAVYYCLQAYNTPWTFGGGTKVEIKR
notes: as for B6
BMP Assay (EC50, nM) [1]: 1.18 nM | EC50 [2]: 71 nM

The next binders have a lower EC50 [2] than those just listed; values first:

BMP Assay (EC50, nM) [1]: 0.701 nM | EC50 [2]: 4.44 nM
B1: TfR(AB405)-LL-RGMA(AE12-1) (bispecific antibody)
chain 1: QVQLVQSGAEVKKPGASVKVSCKASGFTFSNYGMHWIRQAPGQGLEWIAMIYYDSSKMNYADTVKGRFTITRDNSTNTLYMELSSLRSEDTAVYYCAVPTSHYVVDVWGQGTTVTVSSASTKGPSVFPLAPEVQLVQSGAEVKKPGASVKVSCKASGYTFTSHGISWVRQAPGQGLDWMGWISPYSGNTNYAQKLQGRVTMTTDTSTSTAYMELSSLRSEDTAVYYCARVGSGPYYYMDVWGQGTLVTVSS
chain 2: EIVMTQSPATLSVSPGERATLSCQASQDIGNWLAWYQQKPGQSPRLLIYGATSLADGVPARFSGSRSGTEFTLTISSLQSEDFAVYYCLQAYNTPWTFGGGTKVEIKRTVAAPSVFIFPPQSALTQPRSVSGSPGQSVTISCTGTSSSVGDSIYVSWYQQHPGKAPKLMLYDVTKRPSGVPDRFSGSKSGNTASLTISGLQAEDEADYYCCSYAGTDTLFGGGTKVTVLG

BMP Assay (EC50, nM) [1]: 13.2 nM | EC50 [2]: 3.61 nM
B2: TfR(AB404)-LL-RGMA(AE12-1) (bispecific antibody)
chain 1: B1 chain 1
chain 2: AIQMTQSPSSLSASVGDRVTITCQASQDIGNWLAWYQQKPGKSPKLLIYGATSLADGVPSRFSGSRSGTDFTLTISSLQPEDFATYYCLQAYNTPWTFGGGTKVEIKRTVAAPSVFIFPPQSALTQPRSVSGSPGQSVTISCTGTSSSVGDSIYVSWYQQHPGKAPKLMLYDVTKRPSGVPDRFSGSKSGNTASLTISGLQAEDEADYYCCSYAGTDTLFGGGTKVTVLG

BMP Assay (EC50, nM) [1]: < 0.025 nM | EC50 [2]: 4.3 nM
B4: RGMA(AE12-1)-GS-TfR(AB403) (bispecific antibody)
VH: B3 VH
VL: QSALTQPRSVSGSPGQSVTISCTGTSSSVGDSIYVSWYQQHPGKAPKLMLYDVTKRPSGVPDRFSGSKSGNTASLTISGLQAEDEADYYCCSYAGTDTLFGGGTKVTVLGGGSGGGGSGEIVMTQSPATLSVSPGERATLSCQASQDIGNWLAWYQQKPGQSPRLLIYGATSLADGVPARFSGSRSGTEFTLTISSLQSEDFAVYYCLQAYNTPWTFGGGTKVEIKR
notes: DVD-Ig composed from its name; constant regions not assigned; also called RGMA (AE12-1)-GS-AB403 DVD-Ig
